Measured values as given in publication PMC10665551.

What was measured:
[1] = biological target: Pichia pastoris recombinant Oo-ASP-1 (Ostertagia ostertagi); experiment: reducing and non-reducing SDS-PAGE + LC-MS of tryptic peptides; denaturing SDS-PAGE with and without β-mercaptoethanol; 1D and 2D LC-MS of reduced (DTT/IAA) and non-reduced tryptic digests to map intra- and intermolecular disulphide bridges; disulphide-linked dimer
[2] = biological target: native Oo-ASP-1 (activation-associated secreted protein 1 of Ostertagia ostertagi) (Ostertagia ostertagi); experiment: as above

Row | Substance | stoichiometry N [1] | stoichiometry N [2]
1 | Pichia pastoris recombinant Oo-ASP-1 (natural protein) | 2 | 
2 | native Oo-ASP-1 (activation-associated secreted protein 1 of Ostertagia ostertagi) (natural protein) |  | 2
